# Where no end group is shown, it is not given here.
# B1: sd…g (SEQ ID NO: 98) (peptide)
# peptide: SDSGAEEELRRRLSPG
# B2: ds…g (SEQ ID NO: 103) (peptide)
# peptide: DSGRLEQEIRRELSPG
# B3: ds…g (SEQ ID NO: 102) (peptide)
# peptide: DSGRLEQEIRRQLSPG
# B4: ds…g (SEQ ID NO: 100) (peptide)
# peptide: DSGALEQEIRRRLSPG
# B5: ds…a (SEQ ID NO: 106) (peptide)
# peptide: DSPGLEQELRRRLPTA
# B6: pd…a (SEQ ID NO: 104) (peptide)
# peptide: PDSGLEQELRRRLPTA
# B7: sd…g (SEQ ID NO: 97) (peptide)
# peptide: SDSGLEEEARRRLSPG
# B8: sdSG-…g (SEQ ID NO: 92) (peptide)
# peptide: SDSGEEELRRRLSPG
# B9: ds…a (SEQ ID NO: 107) (peptide)
# peptide: DSGPLEQELRRRLPTA
# B10: ds…g (SEQ ID NO: 99) (peptide)
# peptide: DSGALEEELRRRLSPG
# B11: dsGRLEEELR---SPg (SEQ ID NO: 96) (peptide)
# peptide: DSGRLEEELRSPG
# B12: ds…--SPg (SEQ ID NO: 95) (peptide)
# peptide: DSGRLEEELRRSPG
# B13: sdSG--…g (SEQ ID NO: 93) (peptide)
# peptide: SDSGEELRRRLSPG
# B14: ds…-SPg (SEQ ID NO: 94) (peptide)
# peptide: DSGRLEEELRRRSPG
# B15: ds…g (SEQ ID NO: 101) (peptide)
# peptide: DSGRLEQEIRRALSPG
# B16: dp…a (SEQ ID NO: 105) (peptide)
# peptide: DPSGLEQELRRRLPTA
# B17: Mp…s (SEQ ID NO: 112) (peptide)
# peptide: MPSAVEEELRRRLSPS
# modifications: not fully specified (residues 2, 16); printed as MpSAVEEELRRRLSPs
# B18: …s (SEQ ID NO: 109) (peptide)
# peptide: MSAVEEELRRRLSPS
# modifications: not fully specified (residue 15); printed as MSAVEEELRRRLSPs
# B19: Ms…s (SEQ ID NO: 113) (peptide)
# peptide: MSSAVEEELRRRLSPS
# modifications: not fully specified (residues 2, 16); printed as MsSAVEEELRRRLSPs
# B20: …s (SEQ ID NO: 111) (peptide)
# peptide: MSAVEEELRRRLSPS
# modifications: not fully specified (residue 15); printed as MSAVEEELRRRLSPs
# Target: NbALFA^ST (NbALFA clone 1G5)
# Sequence (VHH, as listed by the source): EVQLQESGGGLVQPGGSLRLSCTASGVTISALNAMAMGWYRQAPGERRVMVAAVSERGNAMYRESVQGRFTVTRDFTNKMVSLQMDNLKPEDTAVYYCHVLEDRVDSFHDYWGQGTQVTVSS
# Assay: peptide elution from NbALFA^ST resin; tag position M
row,Binder,t1/2 [min]
1,B1,< 2
2,B2,< 2
3,B3,< 2
4,B4,< 2
5,B5,< 2
6,B6,< 2
7,B7,< 2
8,B8,< 2
9,B9,< 2
10,B10,< 2
11,B11,< 2
12,B12,< 2
13,B13,< 2
14,B14,< 2
15,B15,< 2
16,B16,< 2

# Target: NbALFA^ST (NbALFA clone 1G5)
# Assay: peptide elution from NbALFA^ST resin; tag position N
row,Binder,t1/2 [min]
1,B17,< 2
2,B18,< 2
3,B19,< 2
4,B20,< 2
